From patent US20180086841A1
pEC50: −log10 of the molar value.

How the values were obtained:
human CD27 (human) [1] = molecular target: human CD27 (human) (UniProt P26842); test: flow cytometry MFI, CD4+ T cells in human peripheral blood, n=4
D43A = test: flow cytometry on CHO-K1 transfectants, right sub-column
F28A = test: as above
G89A = test: as above
H36A = test: as above
K31A = test: as above
K38A = test: as above
Q15A = test: as above
S63A = test: as above
V30A = test: as above
W13A = test: as above
Chain of W13A (receptor chain, as listed by the source W13A W13A limits assumed): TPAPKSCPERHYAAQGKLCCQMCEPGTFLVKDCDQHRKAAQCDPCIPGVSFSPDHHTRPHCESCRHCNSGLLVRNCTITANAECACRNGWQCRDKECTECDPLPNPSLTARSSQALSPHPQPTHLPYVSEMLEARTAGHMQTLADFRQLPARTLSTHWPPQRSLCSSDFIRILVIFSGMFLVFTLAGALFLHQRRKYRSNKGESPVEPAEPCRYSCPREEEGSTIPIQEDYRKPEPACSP

[2] = molecular target: Macaca mulatta CD27 (mmCD27) (Macaca mulatta (rhesus) / Macaca fascicularis (cynomolgus)); test: flow cytometry MFI, CD4+ T cells in rhesus peripheral blood, n=4
human CD27 (human) [3] = molecular target: human CD27 (human) (UniProt P26842); test: competition cell ELISA on CHO-hCD27; competitor detected: mouse hCD27.15 at 1 µg/ml

Chain of 1F5-hIgG1 (antibody) (VH): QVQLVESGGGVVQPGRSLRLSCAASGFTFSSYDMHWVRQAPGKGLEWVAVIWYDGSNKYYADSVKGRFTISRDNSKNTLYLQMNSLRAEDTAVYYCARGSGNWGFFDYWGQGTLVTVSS
Chain of 1F5-hIgG1 (antibody) (VL): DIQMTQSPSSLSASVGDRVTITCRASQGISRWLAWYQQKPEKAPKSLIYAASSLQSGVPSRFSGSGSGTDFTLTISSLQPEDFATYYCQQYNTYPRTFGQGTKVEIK
Chain of V30A (receptor chain, as listed by the source V30A V30A limits assumed): as the sequence (receptor chain, as listed by the source W13A W13A limits assumed) above, with A13W, V30A counted along it
Chain of H36A (receptor chain, as listed by the source H36A H36A limits assumed): as the sequence (receptor chain, as listed by the source W13A W13A limits assumed) above, with A13W, H36A counted along it
Chain of K38A (receptor chain, as listed by the source K38A K38A limits assumed): as the sequence (receptor chain, as listed by the source W13A W13A limits assumed) above, with A13W, K38A counted along it
Chain of Q15A (receptor chain, as listed by the source Q15A Q15A limits assumed): as the sequence (receptor chain, as listed by the source W13A W13A limits assumed) above, with A13W, Q15A counted along it
Chain of F28A (receptor chain, as listed by the source F28A F28A limits assumed): as the sequence (receptor chain, as listed by the source W13A W13A limits assumed) above, with A13W, F28A counted along it
Chain of K31A (receptor chain, as listed by the source K31A K31A limits assumed): as the sequence (receptor chain, as listed by the source W13A W13A limits assumed) above, with A13W, K31A counted along it
Chain of D43A (receptor chain, as listed by the source D43A D43A limits assumed): as the sequence (receptor chain, as listed by the source W13A W13A limits assumed) above, with A13W, D43A counted along it
Chain of S63A (receptor chain, as listed by the source S63A S63A limits assumed): as the sequence (receptor chain, as listed by the source W13A W13A limits assumed) above, with A13W, S63A counted along it
Chain of G89A (receptor chain, as listed by the source G89A G89A limits assumed): as the sequence (receptor chain, as listed by the source W13A W13A limits assumed) above, with A13W, G89A counted along it

pEC50 (human CD27 (human) [1]): 8.81
binding, WT hCD27 = 100 (GM FITC) (D43A): 86.1%
binding, WT hCD27 = 100 (GM FITC) (F28A): 46.2%
binding, WT hCD27 = 100 (GM FITC) (G89A): 68.5%
binding, WT hCD27 = 100 (GM FITC) (H36A): 80%
binding, WT hCD27 = 100 (GM FITC) (K31A): 120%
binding, WT hCD27 = 100 (GM FITC) (K38A): 94.2%
binding, WT hCD27 = 100 (GM FITC) (Q15A): 127%
binding, WT hCD27 = 100 (GM FITC) (S63A): 121%
binding, WT hCD27 = 100 (GM FITC) (V30A): 88.9%
binding, WT hCD27 = 100 (GM FITC) (W13A): 82.8%
pEC50 [2]: 8.80
IC50 (read off the curve) (human CD27 (human) [3]): 4 nM
Substance: 1F5-hIgG1 (antibody)
